Source: publication PMC6393308
Substitutions are numbered along the chain they refer to.

T1: HpSoj K199/230E (Helicobacter pylori 26695, UniProt O25759 1-264, K199E;K230E)
T1 sequence: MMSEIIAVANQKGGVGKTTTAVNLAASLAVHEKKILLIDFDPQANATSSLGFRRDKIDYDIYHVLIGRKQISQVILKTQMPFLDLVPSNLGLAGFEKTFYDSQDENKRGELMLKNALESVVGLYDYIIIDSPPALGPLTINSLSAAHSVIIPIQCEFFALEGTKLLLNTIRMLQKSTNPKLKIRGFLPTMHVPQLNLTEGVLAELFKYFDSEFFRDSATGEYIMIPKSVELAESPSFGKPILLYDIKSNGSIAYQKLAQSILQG

T2: HpSoj (Helicobacter pylori 26695, UniProt O25759 1-264)
T2 sequence: T1 sequence with E199K, E230K

T3: HpSoj K199/227/230/247E (Helicobacter pylori 26695, UniProt O25759 1-264, K199E;K227E;K230E;K247E)
T3 sequence: T1 sequence with K227E, K247E

T4: HpSoj K199E (Helicobacter pylori 26695, UniProt O25759 1-264, K199E)
T4 sequence: T1 sequence with E230K

T5: HpSoj K230E (Helicobacter pylori 26695, UniProt O25759 1-264, K230E)
T5 sequence: T1 sequence with E199K

B1: parS24 Cy3 (dsDNA)
DNA 1: AGGGTGTTCCACGTGAAACAGGGA
DNA 2: TCCCTGTTTCACGTGGAACACCCT
B2: parS55 (dsDNA)
DNA 1: CTGAATCAGCAGTTGAATCAGAATGTTCCACGTGAAACAAAGAAAAAAGAACCTG
DNA 2: CAGGTTCTTTTTTCTTTGTTTCACGTGGAACATTCTGATTCAACTGCTGATTCAG

Experiments:
HpSoj K199/230E = target: T1, HpSoj K199/230E; experiment: fluorescence polarization
HpSoj [1] = target: T2, HpSoj; experiment: fluorescence polarization
HpSoj K199/227/230/247E = target: T3, HpSoj K199/227/230/247E; experiment: fluorescence polarization
HpSoj K199E = target: T4, HpSoj K199E; experiment: fluorescence polarization
HpSoj K230E = target: T5, HpSoj K230E; experiment: fluorescence polarization
HpSoj [2] = target: T2, HpSoj; experiment: EMSA

Binder	Kd (HpSoj K199/230E)	Kd (HpSoj [1])	binding result (HpSoj K199/227/230/247E)	Kd (HpSoj K199E)	Kd (HpSoj K230E)	binding result (HpSoj [2])
B1	308 ± 40 nM	122 ± 14 nM	no binding	215 ± 24 nM	187 ± 36 nM	
B2						binds
